{"source": "paper PMC10480500", "about": "“Cryo-EM structure of a bacteriophage M13 mini variant” (Nature Communications, 2023)", "binders": {"B1": {"name": "minor coat protein pIX (natural protein, bacteriophage M13, UniProt P69538 1-32, looked up)", "chain": "MSVLVYSFASFVLGWCLRSGITYFTRLMETSS", "notes": "Minor coat protein pIX of bacteriophage M13 (encoded by helper phage M13KO7); 32 residues, no signal peptide; 5 copies in the particle (layer 2); source: E. coli TG1 with pUC19-minigenome, infected with helper phage M13KO7; in the mini phage purified from the supernatant (cobalt resin, sucrose density gradient)"}, "B2": {"name": "minor coat protein pVI (natural protein, bacteriophage M13, UniProt P69532 1-112, looked up)", "chain": "MPVLLGIPLLLRFLGFLLVTLFGYLLTFLKKGFGKIAIAISLFLALIIGLNSILVGYLSDISAQLPSDFVQGVQLILPSNALPCFYVILSVKAAIFIFDVKQKIVSYLDWDK", "notes": "112 amino acids, no post-translational processing reported; residues 1 and 111-112 not built in the model; 5 copies in the particle; source: E. coli TG1 with pUC19-minigenome, infected with helper phage M13KO7; in the mini phage purified from the supernatant (cobalt resin, sucrose density gradient)"}, "B3": {"name": "minor coat protein pVII (natural protein, bacteriophage M13, UniProt P69535 1-33, looked up)", "chain": "MEQVADFDTIYQAMIQISVVLCFALGIIAGGQR", "notes": "Minor coat protein pVII of bacteriophage M13 (encoded by helper phage M13KO7); 33 residues, no signal peptide; residues 1-4 not built in the model; 5 copies in the particle (layer 1); source: E. coli TG1 with pUC19-minigenome, infected with helper phage M13KO7; in the mini phage purified from the supernatant (cobalt resin, sucrose density gradient)"}}, "key": {"[1]": {"molecular_target": "B3", "experiment": "cryo-EM structure; purified M13 mini phage particle (assembled in E. coli TG1 with helper phage M13KO7), 0.6-0.8 mg/ml; whole particle 3.5 Å with 5-fold symmetry; top, middle and bottom segments refined separately at 3.5, 3.1 and 3.3 Å", "details": "both partners purified"}, "[2]": {"molecular_target": "the molecule itself", "experiment": "cryo-EM structure; purified M13 mini phage particle (assembled in E. coli TG1 with helper phage M13KO7), 0.6-0.8 mg/ml; whole particle 3.5 Å with 5-fold symmetry; top, middle and bottom segments refined separately at 3.5, 3.1 and 3.3 Å"}}}
{"binder": "B1", "values": [{"measurement": "binding result", "setting": "[1]", "value": "binds"}]}
{"binder": "B2", "values": [{"measurement": "stoichiometry N", "setting": "[2]", "value": 5}]}
{"binder": "B3", "values": [{"measurement": "stoichiometry N", "setting": "[2]", "value": 5}]}
